Laboratory results as given in publication PMC2800194.

Tests used:
Assay in all cases: fluorescence anisotropy
Conditions in all cases: Anisotropy: 45 mM Tris pH 8.0, 1 mM CoCl2, 1 mM 2-oxoglutarate, 1 nM DNA, 25 °C, added salt not stated
[1] = molecular target: T1, AlkB D135A D135A (Escherichia coli) (UniProt P05050)
T1 sequence: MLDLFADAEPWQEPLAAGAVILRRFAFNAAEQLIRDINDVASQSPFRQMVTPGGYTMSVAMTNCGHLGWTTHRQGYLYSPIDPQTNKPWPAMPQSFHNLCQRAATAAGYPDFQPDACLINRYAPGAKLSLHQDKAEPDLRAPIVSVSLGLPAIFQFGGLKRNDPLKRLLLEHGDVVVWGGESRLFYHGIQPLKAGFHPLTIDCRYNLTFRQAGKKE

[2] = tested on: AlkB R161A (Escherichia coli)
[3] = tested on: AlkB T51A (Escherichia coli)
[4] = tested on: AlkB W69A (Escherichia coli)
[5] = tested on: AlkB Y76A (Escherichia coli)
[6] = tested on: AlkB wt (Escherichia coli)
[7] = one 1-methyladenine (position not given)
[8] = 1,N6-ethenoadenine (position not given)

## 30-mer 1-meA
[1]; [7]
  Kd: 0.316 µM
[2]; [7]
  Kd: 9.6 µM
[3]; [7]
  Kd: 1.5 µM
[4]; [7]
  Kd: 5.2 µM
[5]; [7]
  Kd: 11 µM
[6]; [7]
  Kd: 2 µM

## 30-mer undamaged
[1]
  Kd: 4.9 µM
[2]
  Kd: 20 µM
[3]
  Kd: 51 µM
[4]
  Kd: 35 µM
[5]; 1 mM Co2+, 1 mM 2-OG
  Kd: 38 µM
[6]
  Kd: 16 µM

## 30-mer εA
[1]; [8]
  Kd: 0.127 µM
[2]; [8]
  Kd: 8 µM
[3]; [8]
  Kd: 2.7 µM
[4]; [8]
  Kd: 7.8 µM
[5]; [8]
  Kd: 22 µM
[6]; [8]
  Kd: 1.2 µM
